Laboratory results reported in paper PMC10976474.

Legend:
[1] = target: T1, MBP-PhoB (Synechococcus sp. WH7803) (UniProt A0ACE0B1Y2); assay: EMSA; conditions: 10 mM Tris-HCl pH 8, 50 mM KCl, 2 mM MgCl2, 5% glycerol, 0.05 mg/mL BSA, 1 mM DTT, 3 mM spermidine (described as 2x binding buffer); 25 ng DNA, 30 min at 23 C …
T1 sequence: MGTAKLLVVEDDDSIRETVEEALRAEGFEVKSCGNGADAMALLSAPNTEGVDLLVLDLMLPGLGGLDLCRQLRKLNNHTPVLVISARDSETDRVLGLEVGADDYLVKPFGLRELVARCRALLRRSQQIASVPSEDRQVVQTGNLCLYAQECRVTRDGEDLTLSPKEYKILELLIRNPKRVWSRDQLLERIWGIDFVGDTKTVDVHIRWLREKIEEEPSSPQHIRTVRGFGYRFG

[2] = target: T1, MBP-PhoB (Synechococcus sp. WH7803); assay: competition; conditions: 10 mM Tris-HCl pH 8, 50 mM KCl, 2 mM MgCl2, 5% glycerol, 0.05 mg/mL BSA, 1 mM DTT, 3 mM spermidine (described as 2x binding buffer); 25 ng DNA, 30 min at 23 C …

| Sequence | binding [1] | binding [2] |
| --- | --- | --- |
| AGGGGTACTGGATCATTTCTGAAGTTGAAGAAATTGATGGTTTGGAGTTTGGGGACCCCGATTGTATGTTAAAATATCCATATGCAGTTGAACAAGGGGTCCTCGTCCCATGGCCACCATATTCAACAGAAAAAAAGATCATTGTAAGATCTTCCGAGATCAGTGTCATGGTTGATCCAGATGCTCCTCGCCTTGCAGATTATGCCAAATTGAAATCAGAAGAGACCTAATGAAATTTTACACCAGCGTACAACAAGCAGGTA (double strand) [S-PM2d133 (gp43) promoter (full-length fragment)] | binds | – |
| AGTTCTTCCCGAGGATTTGTTCGATGAATTCTGAACCAGTAACATCACTTTATCTCTCATTTAACCAAATCAAGTATATTCTTGATGTTATGTGGGGAACCGATCCAGTTACAGCAAAACTATTTGCAAACTCTCACGGAGTTGATGATACCGAACTGGAACGTTATCTTTCCTCTCGTTTAACTGATGGTGATATAACTAAAGTAGATTATACAATTCTTGGAGAAAAATGATTAATGTCAAACAAGAAGATAACGGCAGCTTCAC (double strand) [FAM-S-PM2d004 promoter] | binds | – |
| AGTTCTTCCCGAGGATTTGTTCGATGAATTCTGAACCAGTAACATCACTTTATCTCTCATTTAACCAAATCAAGTATATTCTTGATGTTATGTGGGGAACCGATCCAGTTACAGCAAAACTATTTGCAAACTCTCACGGAGTTGATGATACCGAACTGGAACGTTATCTTTCCTCTCGTTTAACTGATGGTGATATAACTAAAGTAGATTATACAATTCTTGGAGAAAAATGATTAATGTCAAACAAGAAGATAACGGCAGCTTCAC (double strand) [S-PM2d004 promoter (full-length fragment)] | binds | binds |
| CAGCAAGAGCGACTTCAATTTCGAAGTTATTATTGTCATGTTTGATTAAATTGTAGGGCGGGTAATTTTTATTGTGATGTGTCATCGAATCCAATCGATGAAATACATCATCCAGACCTACAAAGTGGGGGGAGTAAATATCCCAAGTGAATTTAGTCATTGCTTTCTCCTTTATTTAAGCGAGTTTGAATTAGGATCTCA (double strand) [S-PM2d130 (hsp20) promoter] | no binding | – |
| GTAACTTCCGACACAAATTCTTGATAGCGTTCAAAGTTTACTTTAGACATATTAGATAATAAAAGAACTGAATTTGTCAATTCGCTTTTGGCGAGTTGAAAGGTCTTCAAAAGAATCCGCTAGATCTTCCTGTTCGACAAGAGCATCAGCAGATGTCTCATCATCAACATTATACAGCTTCATCTTTGCTCTGTCAATACCAACTGTAAAACGGCGATGCATCGTAGGATCATTATATCGATTCTTCAATTGCTTCACCATAATACGACTGGATTGTTCT (double strand) [S-PM2d136 (mazG) promoter] | no binding | no binding |
| TACACTATCTAGGAAACTCATAAATTACCTCTTAGAAAAAACTTAATAGAGAAACTTTTTTCTCATAATCCCAACCAATACATTCTAGCACATTTTTCAATGGTTCCAAGAAAGACTTCTCAAACTGAGTCTGATAGTCAATATACTTATCAACGTTAAACTCCTTGGGAATGTCACTGAAGAATGATATGCAGTTCTCCTGAATTGGGTTTGGTGTTCTCAAG (double strand) [FAM-S-PM2d134 promoter] | binds | – |
| TACACTATCTAGGAAACTCATAAATTACCTCTTAGAAAAAACTTAATAGAGAAACTTTTTTCTCATAATCCCAACCAATACATTCTAGCACATTTTTCAATGGTTCCAAGAAAGACTTCTCAAACTGAGTCTGATAGTCAATATACTTATCAACGTTAAACTCCTTGGGAATGTCACTGAAGAATGATATGCAGTTCTCCTGAATTGGGTTTGGTGTTCTCAAG (double strand) [S-PM2d134 (uvsX) promoter] | binds | binds |
